Source: US20120316071A1 (published 2012)
Changes are numbered by the printed parent chain. Names and notes keep the numbering of the source. Blank lines part the entries; values can stand above or below the binder they belong to.

Legend:
[1] = biological target: T1, Recombinant Human DLL4 (R&D Systems Cat#1506-D4/CF) (human, UniProt Q9NR61 27-529); test: MSD Multispot ECL, antigen spotted on plate, Fab 8.1 nM; blank spot 435
T1 construct: Bought recombinant protein; also called rHuman DLL4; delta-like protein 4

[2] = biological target: T2, rHuman ErbB2/Fc Chimera, CF (R&D Systems Cat#1129-ER) (human, UniProt P04626 23-652); test: as above
T2 construct: Bought reagent; also called human epidermal growth factor 2 receptor; Fc part of the bought chimera not given

[3] = biological target: T3, rHuman EGF R/Fc Chimera, CF (R&D Systems Cat#344-ER) (human, UniProt P00533 25-645); test: as above
T3 construct: Bought reagent; also called epidermal growth factor receptor; Fc part of the bought chimera not given

[4] = biological target: T4, rHuman HGF R/c-MET/Fc Chimera, CF (R&D Systems Cat#358-MT/CF) (human, UniProt P08581 25-932); test: as above
T4 construct: Bought reagent; also called HGF R/Fc; hepatocyte growth factor receptor; Fc part of the bought chimera not given

[5] = biological target: T5, rHuman Notch-1/Fc Chimera, CF (R&D Systems Cat#3647-TK) (human, UniProt P46531 19-526); test: as above
T5 construct: Bought reagent; Fc part of the bought chimera not given

[6] = biological target: T6, rHuman IGF-1 sR, (IGF-1 sR), CF (R&D Systems Cat#391-GR) (human, UniProt P08069 31-932); test: as above
T6 construct: Bought soluble receptor; also called insulin-like growth factor-1 soluble receptor

[7] = biological target: T7, rHuman CD44/Fc Chimera, CF (R&D Systems Cat#3660-CD) (human, UniProt P16070 21-220); test: MSD Multispot ECL, antigen spotted on plate, Fab at 3.8 nM; blank spot 198
T7 construct: Bought Fc chimera; Fc part of the bought chimera not given

[8] = biological target: T8, rHuman IGF-1 sR, CF (R&D Systems Cat#391-GR) (human, UniProt P08069 31-932); test: ECL Multispot (MSD) assay, antigen spotted on plate, 10 nM Fab; blank spot of this row 344
T8 construct: Bought soluble receptor; The column head prints only 'IGF-1'; also called insulin-like growth factor-1 soluble receptor

[9] = biological target: T9, rHuman P-Cadherin/Fc Chimera, CF (R&D Systems Cat#861-PC) (human, UniProt P22223 108-654); test: as above
T9 construct: Bought reagent; Fc part of the bought chimera not given

[10] = biological target: T10, rHuman Erythropoietin R/Fc Chimera, CF (R&D Systems Cat#963-ER) (human, UniProt P19235 25-250); test: as above
T10 construct: Bought reagent; also called EPO R; EPO R/Fc; Fc part of the bought chimera not given
T10 sequence (looked up): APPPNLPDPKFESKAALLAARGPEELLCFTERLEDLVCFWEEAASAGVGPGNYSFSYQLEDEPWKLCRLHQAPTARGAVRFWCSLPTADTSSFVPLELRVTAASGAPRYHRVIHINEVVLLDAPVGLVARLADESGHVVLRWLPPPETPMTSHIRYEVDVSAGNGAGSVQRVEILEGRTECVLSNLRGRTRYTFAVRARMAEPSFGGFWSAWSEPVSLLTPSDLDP

[11] = biological target: T11, rHuman ErbB2/Fc Chimera, CF (R&D Systems Cat#1129-ER) (human, UniProt P04626 23-652); test: as above
T11 construct: Bought reagent; also called human epidermal growth factor 2 receptor; Fc part of the bought chimera not given

[12] = biological target: T12, rHuman EGF R/Fc Chimera, CF (R&D Systems Cat#344-ER) (human, UniProt P00533 25-645); test: as above
T12 construct: Bought reagent; also called epidermal growth factor receptor; Fc part of the bought chimera not given

[13] = biological target: T13, rHuman HGF R/c-MET/Fc Chimera, CF (R&D Systems Cat#358-MT/CF) (human, UniProt P08581 25-932); test: as above
T13 construct: Bought reagent; also called HGF R/Fc; hepatocyte growth factor receptor; Fc part of the bought chimera not given

[14] = biological target: T14, rHuman Notch-1/Fc Chimera, CF (R&D Systems Cat#3647-TK) (human, UniProt P46531 19-526); test: as above
T14 construct: Bought reagent; Fc part of the bought chimera not given

[15] = biological target: T15, rHuman CD44/Fc Chimera, CF (R&D Systems Cat#3660-CD) (human, UniProt P16070 21-220); test: as above
T15 construct: Bought reagent; Fc part of the bought chimera not given

[16] = biological target: T16, Recombinant Human DLL4 (R&D Systems Cat#1506-D4/CF) (human, UniProt Q9NR61 27-524); test: Multispot ECL (MSD), antigen spotted on plate, Fab 1000 nM; blank spot 1133
T16 construct: Bought recombinant protein; also called rHuman DLL4; delta-like protein 4

[17] = biological target: T17, rHuman Notch-1/Fc Chimera, CF (R&D Systems Cat#3647-TK) (human, UniProt P46531 19-526); test: as above
T17 construct: Bought recombinant protein; Fc part of the bought chimera not given

[18] = biological target: T18, rHuman IGF-1 sR, CF (R&D Systems Cat#391-GR) (human, UniProt P08069 31-932); test: as above
T18 construct: Bought recombinant soluble receptor; also called insulin-like growth factor-1 soluble receptor

[19] = biological target: T19, rHuman Erythropoietin R/Fc Chimera, CF (R&D Systems Cat#963-ER) (human, UniProt P19235 25-250); test: as above
T19 construct: Bought recombinant protein; also called EPO R/Fc; Epo R; Fc part of the bought chimera not given
T19 sequence (looked up): T10 sequence (looked up)

B2: Fab VH6-1_IGHD3-3*01_IGHJ4*01 & V4-3_IGLJ4*01 (Fab, V domains shown)
VH: QVQLQQSGPGLVKPSQTLSLTCAISGDSVSSNSAAWNWIRQSPSRGLEWLGRTYYRSKWYNDYAVSVKSRITINPDTSKNQFSLQLNSVTPEDTAVYYCAREYYDFWSGYYTDYFDYWGQGTLVTVSS
VL: QPVLTQPTSLSASPGASARLTCTLRSGINLGSYRIFWYQQKPESPPRYLLSYYSDSSKHQGSGVPSRFSGSKDASSNAGILVISGLQSEDEADYYCMIWHSSASFVFGGGTQLIIL
notes: Tested as a purified germline Fab made in E. coli; The VH was cloned into plasmid A (CH1 constant region, His6 and Flag tags) and the lambda VL into plasmid E (lambda CL)
ECL signal [7]: 419

B4: Fab VH1-46_IGHD6-13*01_IGHJ4*01 & B3_IGKJ1*01 (Fab, V domains shown)
VH: QVQLVQSGAEVKKPGASVKVSCKASGYTFTSYYMHWVRQAPGQGLEWMGIINPSGGSTSYAQKFQGRVTMTRDTSTSTVYMELSSLRSEDTAVYYCAREGYSSSWYDYFDYWGQGTLVTVSS
VL: not shown
notes: Germline Fab made in E. coli; VH was cloned into Plasmid A (CH1, His6 and Flag tags) and the kappa VL into Plasmid C (kappa CL)
ECL signal [16]: 2780
ECL signal [17]: 2270
ECL signal [18]: 1670
ECL signal [19]: 8590

Now from value to binder:

ECL signal [1]: 1550
ECL signal [2]: 557
ECL signal [3]: 560
ECL signal [4]: 551
ECL signal [5]: 612
ECL signal [6]: 518
B1: Fab VH1-8_IGHD2-2*01_IGHJ6*01 & L12_IGKJ1*01 (Fab, V domains shown)
VH: QVQLVQSGAEVKKPGASVKVSCKASGYTFTSYDINWVRQATGQGLEWMGWMNPNSGNTGYAQKFQGRVTMTRNTSISTAYMELSSLRSEDTAVYYCARGGYCSSTSCYADYYYYYGMDVWGQGTTVTVSS
VL: not shown

ECL signal [8]: 293
ECL signal [9]: 293
ECL signal [10]: 389
ECL signal [11]: 356
ECL signal [12]: 371
ECL signal [13]: 434
ECL signal [14]: 363
ECL signal [15]: 417
B3: Fab VH1-46_IGHD6-6*01_IGHJ1*01 S102A/S103P/S104F (APF) & L6_IGKJ1*01 (Fab, V domains shown)
VH: B4 VH with G100E, S102A, S103P, S104F, W105S, Y106A, D107E, D110Q, Y111H
VL: not shown
notes: Tested as a Fab made in E. coli; also called H:APF & L:wt; APF triple mutant
